{"source": "paper PMC4938799", "about": "“LD Motif Recognition by Talin: Structure of the Talin-DLC1 Complex” (Structure(London, England:1993), 2016)", "key": {"endogenous paxillin": {"test_system": "endogenous paxillin", "assay": "GST pull-down of endogenous paxillin in A549 and H358 cells", "format": "cell-based, human", "conditions": "anti-paxillin immunoblot", "excerpt": "(§1) To investigate whether the biological effects of GST-R8 might be partly mediated via paxillin, we first confirmed that endogenous paxillin is expressed in cell lines A549, H358, and 293T (Figure S6A). […] As a positive control, HEK293 cells were co-transfected with a paxillin-DDK construct (OriGene) and GST-R8 (wild-type, R1544E and 2E mutants), followed by a GST pull-down assay.\n(§2) Figure S6, related to figure 5. Binding of GST-talin R8 to endogenous paxillin is undetectable in A549 and H358 cells.\n(A) The expression of endogenous paxillin in cell lines. Cell extracts were assayed by immunoblotting with anti-paxillin antibody.\n(B) A complex of GST-talin R8 with endogenous paxillin is undetectable in A549 (top) and H358 (bottom) cells. Cells were transfected with the GST constructs indicated, and cell extracts subjected to a glutathione bead pull down assay followed by immunoblotting with anti-GST and anti-paxillin antibodies on the same membrane.\n(C) Wild-type GST-talin R8 forms a complex with transfected paxillin in 293T cells. […]\nG418 colony growth, soft agar growth and cell migration assays - As described previously (Qian et al., 2009), transfected A549 cells were counted, and equal numbers of cells were seeded in […]"}, "paxillin-DDK": {"test_system": "paxillin-DDK", "assay": "GST pull-down of transfected paxillin-DDK in 293 cells", "format": "cell-based, human", "excerpt": "as §1, §2\n(A) The expression of endogenous paxillin in cell lines. Cell extracts were assayed by immunoblotting with anti-paxillin antibody. […]\nNMR Spectroscopy - Spectra were processed with TopSpin (Bruker) and analysed using CCPN Analysis (Vranken et al., 2005). […] The changes in chemical shift of 15N-talin R8 domain were calculated from 1H,15N-HSQC spectra as Δδ=√(ΔδH2+(ΔδN*0.15)2). […]\nDissociation constants were evaluated from the 1H,15N-HSQC chemical shift changes in the titration experiments conducted using 0.1 mM 15N-talin R8 domain. […]\nConcentrations of the DLC1 and RIAM peptides were determined from UV absorbance at 280 nm.\nConcentrations of the paxillin peptide that lacks UV-active aromatic residues was determined by NMR from the comparison of the integral intensities of the well-separated signals of the methyl groups of the paxillin and RIAM peptides following the Eretic2 procedure of TopSpin (Bruker). […]"}}, "data": [{"molecule": "GST-R8: GST-tagged talin R8, amino acids 1,453–1,580 (protein, left off: GST, end not stated, kept) NSQAGQQGLVEPTQFARANQAIQMACQSLGEPGCTQAQVLSAATIVAKHTSALCNSCRLASARTANPTAKRQFVQSAKEVANSTANLVKTIKALDGDFTEENRAQCRAATAPLLEAVDNLSAFASNPE", "values": [{"measurement": "complex with endogenous paxillin", "setting": "endogenous paxillin", "value": "insufficient to detect binding"}, {"measurement": "complex with endogenous paxillin", "setting": "endogenous paxillin; listed as GST-talin R8", "value": "undetectable"}, {"measurement": "binding of paxillin-DDK", "setting": "paxillin-DDK; 293 cells co-transfected with paxillin-DDK and GST-R8, listed as GST-talin R8 wt", "value": "formed a complex"}, {"measurement": "binding of paxillin-DDK", "setting": "paxillin-DDK; 293 cells co-transfected with paxillin-DDK and GST-R8, listed as wild-type GST-R8", "value": "did bind paxillin-DDK, and did so more efficiently than 2E GST-R8 talin mutant"}]}]}
